{"source": "patent US20230399641A1", "about": "(SHANGHAITECH UNIVERSITY, published 2023)", "biological_target": "extracellular protease domain of wildtype human ACE2 (residues 19-615) (human, UniProt Q9BYF1 19-615)", "sequence (Q9BYF1 19-615)": "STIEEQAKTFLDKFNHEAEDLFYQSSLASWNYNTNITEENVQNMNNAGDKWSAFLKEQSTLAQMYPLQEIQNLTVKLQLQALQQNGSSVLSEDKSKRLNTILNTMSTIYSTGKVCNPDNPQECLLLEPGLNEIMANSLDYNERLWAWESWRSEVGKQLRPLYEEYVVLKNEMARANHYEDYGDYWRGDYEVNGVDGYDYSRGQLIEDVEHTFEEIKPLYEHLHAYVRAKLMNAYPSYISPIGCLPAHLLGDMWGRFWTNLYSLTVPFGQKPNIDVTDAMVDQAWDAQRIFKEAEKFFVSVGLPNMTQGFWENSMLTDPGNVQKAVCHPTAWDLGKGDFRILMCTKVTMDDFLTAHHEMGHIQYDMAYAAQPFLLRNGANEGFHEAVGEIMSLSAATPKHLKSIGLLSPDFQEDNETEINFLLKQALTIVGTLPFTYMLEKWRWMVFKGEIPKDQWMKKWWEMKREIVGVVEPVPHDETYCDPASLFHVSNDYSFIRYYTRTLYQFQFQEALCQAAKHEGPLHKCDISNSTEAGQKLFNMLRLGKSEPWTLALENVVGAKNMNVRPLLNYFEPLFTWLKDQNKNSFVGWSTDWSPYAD"}
{"binder": "receptor binding domain (RBD) of HCoV-NL63 spike (residues 481-616) (ligand) QHTDINFTATASFGGSCYVCKPHQVNISLNGNTSVCVRTSHFSIRYIYNRVKSGSPGDSSWHIYLKSGTCPFSFSKLNNFQKFKTICFSTVEVPGSCNFPLEATWHYTSYTIVGALYVTWSEGNSITGVPYPVSGI", "values": [{"measurement": "Kd", "result": 430, "unit": "nM"}]}
